Laboratory results reported in patent US8728980B2, “Peptide microarray and method of use” (The Regents of the University of California, priority 2011, dated 2014).
Non-standard residues stand in square brackets, D forms with d. Primed or numbered codes have the meaning given here. No end group written: not given here. Me3 = trimethylation of the lysine side chain; Me3(3) = trimethyl (trimethylated lysine); Lys(Me3) = C[N+](C)(C)CCCC[C@H](N)C(=O)O

target: T1, Polycomb protein chromodomain (Drosophila melanogaster, UniProt P26017); test: Peptide microarray binding of GST-tagged Polycomb chromodomain; set-up: dose or concentration left out as unconfirmed; details: Binder if at least two of three spots pass p-value cutoff 0.001 from background
T1 construct: The chromodomain (a.a. 1-90) of Polycomb protein was expressed as GST-tagged fusion protein; made in house
T1 sequence (P26017 1-90): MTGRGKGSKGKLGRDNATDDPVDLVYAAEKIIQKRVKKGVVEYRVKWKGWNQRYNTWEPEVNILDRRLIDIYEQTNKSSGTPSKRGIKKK
Source text: There are a total of 46 histone peptide sequences (9 a.a. long) with a single lysine-trimethylation site which are conserved between the human and fruit fly H2, H3 and H4 proteins (Table II). These were screened for Polycomb protein chromodomain binding by peptide microarray. Each peptide sequence was screened as triplets, and the fluorescence intensity was quantified with background subtraction individually for each spot from the microarray images by ImageJ^9 and the whole data set was fit to a mixed Gaussian distribution model (FIG. 8, Table III).
Twelve out of the 46 sequences were identified as positive binders under these criteria. Ten of these microarray-identified binders also yielded high mutation matrix score in an independent prediction (Table IV).
The chromodomain (a.a. 1-90) of Polycomb protein was expressed as GST-tagged fusion protein and purified as described in [65]. The purity of the protein was examined by SDS-PAGE electrophoresis followed by both Coomassie staining and western blot using an Anti-GST-HRP conjugate (Santa Cruz Biotechnology). The concentration of purified protein was determined by BCA assay (Amresco). A total of 46 trimethylated histone peptides were synthesized by Sigma Aldrich (desalted, mass spectrometry checked). The peptides were then printed as triplets onto glass slides (ArrayIt), together with a Cy3 marker and an anti-GST (mouse monoclonal) antibody (Thermo) as references.
The peptide microarray was rinsed with TBST buffer (25 mM Tris, 125 mM NaCl, 0.05% Tween-20, pH 8) followed by blocking with 5% non-fat milk in TBST (room temperature 1 hour or 4° C. overnight). The slide was then incubated at 4° C. with Polycomb-GST fusion protein at a final concentration of […] in 5% non-fat milk/TBST for 6 hours. After washing three times for 10 minutes each with TBST, the slide was incubated with an anti-GST mouse monoclonal IgG antibody (Thermo) at a final concentration of 1 μg/mL in 5% non-fat milk/TBST and shaken gently for 1 hour at room temperature. A secondary anti-mouse IgG Dylight-488 conjugated antibody (Thermo) was added to a final concentration of 0.1 μg/mL after three more cycles of 10 minutes washing with TBST. The slide was shaken for 1 hr at room temperature and washed three times with TBST.
The dried microarray slides were scanned using a Hamamatsu NanoZoomer 2.0HT Slide Scanning System (Neuroscience Light Microscopy Facility, UCSD). Data quantification were processed using the microarray processing software ImageJ^9, where the fluorescent intensity of a microarray spot was defined as its own intensity minus the background intensity around it on the scanned image.

Array Verification, NonBinder:
KAGKDSGKA (not fully specified (residue 8); also: trimethylated lysine, site not given here)
EETRGVLKV (EETRGVL[Lys(Me3)]V) [9-residue histone peptide, H4_DROME, trimethylated lysine site 59]
NAARDNKKT (also: trimethylated Lys, site not given here)
RNDEELNKL (RNDEELNK(Me3(3))L)
TGGKAPRKQ (also: trimethylated Lys, site not given here) [9-residue histone peptide, H3_DROME, trimethylated lysine site 18]
STELLIRKL (STELLIRK(Me3(3))L) [9-residue histone peptide, H3_DROME, trimethylated lysine site 64]
IYIYKVLKQ (also: trimethylated Lys, site not given here)
YTEHAKRKT (YTEHAKRK(Me3)T) [9-residue histone peptide, H4_DROME, trimethylated lysine site 79]
MAGGKAGKD (not fully specified (residue 8); also: trimethylated lysine, site not given here)
REIAQDFKT (REIAQDFK(Me3(3))T) [9-residue histone peptide, H3_DROME, trimethylated lysine site 79]
LARRGGVKR (LARRGGVK(Me3(3))R) [9-residue histone peptide, H4_DROME, trimethylated lysine site 44]
APATGGVKK (not fully specified (residue 8); also: trimethylated lysine, site not given here) [9-residue histone peptide, H3_DROME, trimethylated lysine site 36]
HAVSEGTKA (HAVSEGTK(Me3(3))A)
DNIQGITKP (DNIQGIT[Lys(Me3)]P) [9-residue histone peptide, H4_DROME, trimethylated lysine site 31]
PATGGVKKP (not fully specified (residue 8); also: trimethylated lysine, site not given here) [9-residue histone peptide, H3_DROME, trimethylated lysine site 37]
VTYTEHAKR (VTYTEHAK(Me3(3))R) [9-residue histone peptide, H4_DROME, trimethylated lysine site 77]
APSTGGVKK (also: trimethylated Lys, site not given here) [9-residue histone peptide, H33_DROME, trimethylated lysine site 36]
GNASKDLKV (not fully specified (residue 8); also: trimethylated lysine, site not given here)
ARKSTGGKA (also: trimethylated Lys, site not given here) [9-residue histone peptide, H3_DROME, trimethylated lysine site 14]
GLGKGGAKR [9-residue histone peptide, H4_DROME, trimethylated lysine site 16]
GNAARDNKK (also: trimethylated Lys, site not given here)
LLPGELAKH (LLPGELAK(Me3(3))H)
QAVLLPKKT (QAVLLPKK(Me3)T)
ELAGNASKD (ELAGNASK(Me3(3))D)
NLCAIHAKR (NLCAIHAK(Me3(3))R) [9-residue histone peptide, H3_DROME, trimethylated lysine site 115]
IHKSLIGKK (not fully specified (residue 8); also: trimethylated lysine, site not given here)
KGGKGLGKG (not fully specified (residue 8); also: trimethylated lysine, site not given here) [9-residue histone peptide, H4_DROME, trimethylated lysine site 12]
KRVTIMPKD (not fully specified (residue 8); also: trimethylated lysine, site not given here) [9-residue histone peptide, H3_DROME, trimethylated lysine site 122]
SRLAHYNKR (SRLAHYNK(Me3(3))R)
EELDSLIKA (EELDSLI[Lys(Me3)]A)
PSTGGVKKP (also: trimethylated Lys, site not given here) [9-residue histone peptide, H33_DROME, trimethylated lysine site 37]
GVIPHIHKS (GVIPHIHK(Me3(3))S)
PDTGISSKA (PDTGISSK(Me3(3))A)
GKDSGKAKA (not fully specified (residue 8); also: trimethylated lysine, site not given here)

Array Verification, Binder:
GGAKRHRKV (also: trimethylated lysine, site not given here) [9-residue histone peptide, H4_DROME, trimethylated lysine site 20]
RIHRLLRKG (RIHRLLRK(Me3(3))G)
PRKQLATKA (PRKQLATK(Me3)A) [9-residue histone peptide, H3_DROME, trimethylated lysine site 23]
IQAVLLPKK (not fully specified (residue 8); also: trimethylated lysine, site not given here)
DSGKAKAKA (not fully specified (residue 8); also: trimethylated lysine, site not given here)
MDVVYALKR (MDVVYALK(Me3(3))R) [9-residue histone peptide, H4_DROME, trimethylated lysine site 91]
RTKQTARKS (also: trimethylated lysine, site not given here) [9-residue histone peptide, H3_DROME, trimethylated lysine site 9]
REIRRYQKS (REIRRYQK(Me3(3))S) [9-residue histone peptide, H3_DROME, trimethylated lysine site 56]
EGTKAVTKY (also: trimethylated Lys, site not given here)
GRIHRHLKS (GRIHRHLK(Me3(3))S)
ASKDLKVKR (not fully specified (residue 8); also: trimethylated lysine, site not given here)
